Broadly, the stoichiometry N is the number of molecules, sites or subunits per partner or assembly.

The values that follow come from article PMC3812978 (The Journal of Cell Biology, 2013).

The data set deals with the molecule itself. The data set is described as follows: AUC.

B1: nontagged Atg38 (recombinant) (natural protein, budding yeast, UniProt Q05789 1-226, looked up)
chain: MSTLAEVYTIIEDAEQECRKGDFTNAKAKYQEAIEVLGPQNENLSQNKLSSDVTQAIDLLKQDITAKIQELELLIEKQSSEENNIGMVNNNMLIGSVILNNKSPINGISNARNWDNPAYQDTLSPINDPLLMSILNRLQFNLNNDIQLKTEGGKNSKNSEMKINLRLEQFKKELVLYEQKKFKEYGMKIDEITKENKKLANEIGRLRERWDSLVESAKQRRDKQKN
For the protein B1, the “stoichiometry N” value was 2.
